Measured values taken from patent US6790630 (NEW ENGLAND BIOLABS, dated 2004).

B1: Ov33, native 31-33 kDa antigen of Onchocerca volvulus adult worms (other)
chain: GVVKRYNKRFAGFNVAGIGGNAGCVVVDNKLFANSFFLRELTTEEQRELAQYIEDSNRYKEEVKESLEERRKGWQLARDGKEDSKVLSALAEKKLPKPPKKPSFCSAGDTTQYYFDGCMVQNDKIYVGRAYVRDLTPDEVTQLKTFDAKMTAYQKYLSSTIQKQVDSLFGEKSNLFNLFADTRTEATSQASDDATAGATTTQAPVEAPEPPHFCVAIY
B2: DiT33, native 31-33 kDa glycoprotein of Dirofilaria immitis (other)
chain: SVINRHNKRFAGFSVAGIGGTAGCVVVDNKLFANSFYLRDLTTEEQRELAQYVEDSNQYKEEVKTSLEERRKGWQLARHGEKDAKVLSSLAEKKFPKPPKKPSFCSAGDTTQYYFDGCMVQNNKIYVGRMYVRDLTSDEINQLKTFDAKMTAYQKYLSSSIQQQVDSLFGDKSNLFNLFTDTRHETSSQPSDATTISTTTQAPVEPPETPHFCIAIY
notes: also called doublet of 31 and 33 kDa; D. immitis homolog of Ov33

What was measured:
[1] = molecular target: T1, Peanut agglutinin (PNA), biotinylated (UniProt P02872 24-259); assay: lectin blot of affinity purified antigen
T1 construct: Lectin
T1 sequence: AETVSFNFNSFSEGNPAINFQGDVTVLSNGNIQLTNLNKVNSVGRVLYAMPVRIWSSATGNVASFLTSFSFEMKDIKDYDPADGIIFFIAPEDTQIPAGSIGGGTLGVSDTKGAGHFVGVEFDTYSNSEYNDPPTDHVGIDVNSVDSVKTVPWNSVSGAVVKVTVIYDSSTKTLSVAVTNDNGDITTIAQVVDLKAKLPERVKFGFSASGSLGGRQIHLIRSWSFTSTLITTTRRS

[2] = molecular target: T2, Erythrina cristagalli lectin (ECL), biotinylated (Erythrina cristagalli, UniProt P83410 1-239); assay: lectin blot of affinity purified antigen
T2 construct: Lectin
T2 sequence: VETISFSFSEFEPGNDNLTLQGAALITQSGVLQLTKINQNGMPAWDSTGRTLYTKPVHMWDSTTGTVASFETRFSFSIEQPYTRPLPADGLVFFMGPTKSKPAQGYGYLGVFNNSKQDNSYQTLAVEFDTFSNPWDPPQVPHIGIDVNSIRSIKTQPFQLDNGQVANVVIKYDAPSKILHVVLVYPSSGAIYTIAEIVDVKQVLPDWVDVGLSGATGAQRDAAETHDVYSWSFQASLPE

[3] = molecular target: T3, Phaseolus vulgaris erthroagglutinin (PHA-E), biotinylated (Phaseolus vulgaris, UniProt P05088 22-275); assay: lectin blot of affinity purified antigen
T3 construct: Lectin

[4] = molecular target: T4, Soybean agglutinin (SBA), biotinylated (UniProt P05046 33-285); assay: lectin blot of affinity purified antigen
T4 construct: Lectin

[5] = molecular target: T5, Concanavilin A (Con-A), biotinylated (UniProt P02866 30-281); assay: lectin blot of affinity purified antigen
T5 construct: Lectin

[6] = molecular target: B2; assay: lectin blot, biotinylated lectin 20 µg/ml
[7] = molecular target: B1; assay: lectin blot, biotinylated lectin 20 µg/ml
[8] = molecular target: B2; assay: lectin blot of affinity purified antigen
[9] = molecular target: B1; assay: lectin blot of affinity purified antigen

T4 sequence (P05046 33-285 limits assumed): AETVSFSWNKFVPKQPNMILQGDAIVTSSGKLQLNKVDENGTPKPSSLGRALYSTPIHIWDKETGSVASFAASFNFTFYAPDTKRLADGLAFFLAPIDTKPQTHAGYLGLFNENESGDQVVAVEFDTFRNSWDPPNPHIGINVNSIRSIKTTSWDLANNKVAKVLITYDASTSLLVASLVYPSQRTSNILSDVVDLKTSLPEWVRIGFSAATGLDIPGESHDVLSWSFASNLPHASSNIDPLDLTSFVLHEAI

B1: no binding (tested: 20 µg/ml) [1]; no binding (tested: 20 µg/ml) [2]; no binding (tested: 20 µg/ml) [3]. B1: no binding (tested: 20 µg/ml) [4]; no binding (tested: 20 µg/ml) [5].

B2: no binding (tested: 20 µg/ml) [1]; no binding (tested: 20 µg/ml) [2]; no binding (tested: 20 µg/ml) [3]. B2: no binding (tested: 20 µg/ml) [4]; no binding (tested: 20 µg/ml) [5].

B3: Artpocarpus integrifolia (jacalin), biotinylated (other)
chain 1: GKAFDDGAFTGIREINLSYNKETAIGDFQVVYDLNGSPYVGQNHKSFITGFTPVKISLDFPSEYIMEVSGYTGNVSGYVVVRSLTFKTNKKTYGPYGVTSGTPFNLPIENGLIVGFKGSIGYWLDYFSMYLSL
chain 2: NEQSGKSQTVIVGSWGAKVS
B3: binds [6]; binds [7].

B4: Wheat germ agglutinin (WGA), biotinylated (other)
chain: QRCGEQGSNMECPNNLCCSQYGYCGMGGDYCGKGCQNGACWTSKRCGSQAGGATCTNNQCCSQYGYCGFGAEYCGAGCQGGPCRADIKCGSQAGGKLCPNNLCCSQWGFCGLGSEFCGGGCQSGACSTDKPCGKDAGGRVCTNNYCCSKWGSCGIGPGYCGAGCQSGGCDG
notes: Lectin
B4: no binding (tested: 20 µg/ml) [8]; no binding (tested: 20 µg/ml) [9].
